The record followed here is paper PMC3331996 (Developmental Cell, 2012).

Broadly, the stoichiometry N is a count of units in the complex or per binding partner.

This data set deals with the molecule itself. Kind of data set: combined sedimentation/Stokes analysis.

B1: Sec7f, Sec7(203-2009) purified fragment (domain or fragment, yeast, UniProt P11075 203-2009, looked up)
chain: PRSTHTRNISLSSNGSNTNSTIILVKTTLETILNDKDIKKNSNAQKAIERTLQKFKEFDPQTTNNPHYVDSILVFEALRASCRTKSSKVQSLALDCLSKLFSFRSLDETLLVNPPDSLASNDQRQDAADGITPPPKQKIIDAAIDTISDCFQGEGTDDRVELQIVRALSSCILEEDSSSLCHGASLLKAIRTIYNVFVFSLNPSNQGIAQATLTQIISSVYDKIDLKQSTSSAVSLSTKNHQQQSAIELSEASENAETPAPLTLENMDKLNDDEERLMDAQQPDSIAITNQDLAVKDAFLVFRVMAKICAKPLETELDMRSHAVRSKLLSLHIIYSIIKDHIDVFLSHNIFLPGKERVCFIDSIRQYLRLVLSRNAASPLAPVFEVTLEIMWLLIANLRADFVKEIPVFLTEIYFPISELTTSTSQQKRYFLSVIQRICNDPRTLVEFYLNYDCNPGMPNVMEITVDYLTRLALTRVEITQTQRSYYDEQISKSLSTYNFSQLPLLTSSNLSSSPDVGQVNLLFPLDFALKMVSLNCIVSVLRSLSSWAHKALNPNTHTANKVLLNTTSSARQESRSSLSNDVRSSIMTSNDDFKPTYEDEESRSLSSQNIDADDPTQFENLKLRKTALSECIAIFNNKPKKAIPVLIKKGFLKDDSPISIAKWLLETEGLDMAAVGDYLGEGDDKNIAIMHAFVDEFDFTGMSIVDALRSFLQSFRLPGEGQKIDRFMLKFAERFVDQNPGVFSKADTAYVLSYSLIMLNTDLHSSQIKNKMSLQEFLENNEGIDNGRDLPRDFLEGLFNEIANNEIKLISEQHQAMLSGDTNLVQQQQSAFNFFNSRDLTREAYNQVSKEISSKTELVFKNLNKNKGGPDVYYAASHVEHVKSIFETLWMSFLAALTPPFKDYDDIDTTNKCLEGLKISIKIASTFRINDARTSFVGALVQFCNLQNLEEIKVKNVNAMVILLEVALSEGNYLEGSWKDILLVVSQMERLQLISKGIDRDTVPDVAQARVANPRVSYESSRSNNTSFFDVWGKKATPTELAQEKHHNQTLSPEISKFISSSELVVLMDNIFTKSSELSGNAIVDFIKALTAVSLEEIESSENASTPRMFSLQKMVDVCYYNMDRIKLEWTPLWAVMGKAFNKIATNSNLAVVFFAIDSLRQLSMRFLDIEELSGFEFQHDFLKPFEYTVQNSGNTEVQEMIIECFRNFILTKSESIKSGWKPILESLQYTARSSTESIVLKTQLLVSNDIVTNHFENVFSQEDAFSELVGVFREITKNKRFQKLSLHALESLRKMTQNVADICFYNENKTEEERKHNDALLRGKDIFQDVWFPMLFCFNDTIMTAEDLEVRSRALNYMFDALVAYGGKFNDDFWEKICKKLLFPIFGVLSKHWEVNQFNSHDDLSVWLSTTLIQALRNLIALFTHYFESLNRMLDGFLGLLVSCICQENDTIARIGRSCLQQLILQNVSKFNEYHWNQIGDVFDKLFDLTTANELFDYDPLQQGRKSSVSHHQTTNDTSQHSDDDSNDRRENDSNISETVERAHQEESSEDVGGDMVETLNGQTKLNNGNSVPTVKDELNPKPASLSIPKKTKHMKRNESNEDIRRRINIKNSIVVKCVLQLLMIELLNELFENEDFAHCIPYKEAIRITRLLEKSYEFSRDFNEDYGLRTRLVEARVVDKIPNLLKQETSAAAVLLDIMFQLYLNDDEKKADLITRLITICIQVVEGYVSLDDRTMERSINAWRSVIVEILQGYYEFDDEDFRLYCPAMYALVIQILDKSVPTELRHAIKQFLSRVGELYLSTD
In the case of B1, the “stoichiometry N” value turned out to be 2.

B2: Sec7ΔC+HDS1, Sec7 residues 203-1220, purified (domain or fragment, yeast, UniProt P11075 203-1220, looked up)
chain: PRSTHTRNISLSSNGSNTNSTIILVKTTLETILNDKDIKKNSNAQKAIERTLQKFKEFDPQTTNNPHYVDSILVFEALRASCRTKSSKVQSLALDCLSKLFSFRSLDETLLVNPPDSLASNDQRQDAADGITPPPKQKIIDAAIDTISDCFQGEGTDDRVELQIVRALSSCILEEDSSSLCHGASLLKAIRTIYNVFVFSLNPSNQGIAQATLTQIISSVYDKIDLKQSTSSAVSLSTKNHQQQSAIELSEASENAETPAPLTLENMDKLNDDEERLMDAQQPDSIAITNQDLAVKDAFLVFRVMAKICAKPLETELDMRSHAVRSKLLSLHIIYSIIKDHIDVFLSHNIFLPGKERVCFIDSIRQYLRLVLSRNAASPLAPVFEVTLEIMWLLIANLRADFVKEIPVFLTEIYFPISELTTSTSQQKRYFLSVIQRICNDPRTLVEFYLNYDCNPGMPNVMEITVDYLTRLALTRVEITQTQRSYYDEQISKSLSTYNFSQLPLLTSSNLSSSPDVGQVNLLFPLDFALKMVSLNCIVSVLRSLSSWAHKALNPNTHTANKVLLNTTSSARQESRSSLSNDVRSSIMTSNDDFKPTYEDEESRSLSSQNIDADDPTQFENLKLRKTALSECIAIFNNKPKKAIPVLIKKGFLKDDSPISIAKWLLETEGLDMAAVGDYLGEGDDKNIAIMHAFVDEFDFTGMSIVDALRSFLQSFRLPGEGQKIDRFMLKFAERFVDQNPGVFSKADTAYVLSYSLIMLNTDLHSSQIKNKMSLQEFLENNEGIDNGRDLPRDFLEGLFNEIANNEIKLISEQHQAMLSGDTNLVQQQQSAFNFFNSRDLTREAYNQVSKEISSKTELVFKNLNKNKGGPDVYYAASHVEHVKSIFETLWMSFLAALTPPFKDYDDIDTTNKCLEGLKISIKIASTFRINDARTSFVGALVQFCNLQNLEEIKVKNVNAMVILLEVALSEGNYLEGSWKDILLVVSQMERLQLISKGIDRDTVPDVAQARVANPRVS
For the protein B2, the “stoichiometry N” value worked out at 2.
